Data reported in patent publication US20160032014A1 (Amgen, published 2016).

B1: SS-15005 (antibody, IgG2, V domains shown)
VH: EVQLLESGGGLVQPGGSLRLSCAASGFTFSSYAMNWVRQAPGKGLEWVSTISGSGGNTYYADSVKGRFTISRDNSKNTLYLQMNSLRAEDTAVYYCAKKFVLMVYAMLDYWGQGTLVTVSS
VL: DIQMTQSPSSLSASVGDRVTITCRASQSISIYLNWYQQKPGKAPYLLIYAAASLQSGVPSRFSGSGSGTDFTLTISSLQPEDFATYYCQQSYSAPITFGQGTRLEIKR
notes: also called 25G4
B2: 13G9 (antibody, human IgG2, lambda, V domains shown)
VH: QVQLVQSGAEVTKPGASVKVSCKASGYTFTSYGISWVRQAPGQGLEWMGWISVYKGNTNYAQKLQGRVTMTTDTSTSTAYMELRSLRSDDTAVYYCARNYQIFSFDYWGQGTLVTVSS
VL: QSVLTQPPSVSGAPGQRVTISCTGSRSNIGAGYDVNWYQQLPGTAPKLLIYGNSNRPSGVPDRFSGSKSGTSASLVITGLQAEDEADYYCQSYDSNLSGSVFGGGTKLTVLG
notes: tested as hybridoma supernatant
B3: 19A12 (antibody, human IgG2, kappa, V domains shown)
VH: QVQLVESGGGVVQPGRSLRLSCAASGFTFSSYGMHWVRQAPGKGLEWVAVIWYDGSNKYYADSVKGRFTISRDNSKNTLYLQMNSLRAEDTAVYYCVRDRGLDWGQGTLVTVSS
VL: not shown
notes: as for B2
B4: 20D12 (antibody, human IgG2, lambda, V domains shown)
VH: QVQLQQWGAGLLKPSETLSLTCAVSGGSFRAYYWNWIRQPPGKGLEWIGEINHSGRTDYNPSLKSRVTISVDTSKNQFSLKLSSVTAADTAVYYCARGQLVPFDYWGQGTLVTVSS
VL: not shown
notes: as for B2
B5: 25B5 (antibody, human IgG2, lambda, V domains shown)
VH: QIQLVQSGAEVKKPGASVKVSCKASGYTLTSYGISWVRQAPGQGLEWMGWISFYNGNTNYAQKVQGRVTMTTDTSTSTVYMELRSLRSDDTAVYFCARGYGMDVWGQGTTVTVSS
VL: QSALTQPASVSGSPGQSITISCTGTSSDVGGYNSVSWYQQHPGKPPKLMIYEVSNRPSGISNRFSGSKSGNTASLTISGLQAEDEADYFCSSYTSTSMVFGGGTKLAVLR
notes: as for B2

Key:
[1] = biological target: T1, human PCSK9 (self-cleaved, mature, secreted PCSK9 comprising amino acids 31 to 692 of SEQ ID NO: 2) (human, UniProt Q8NBP7 31-692, biotinylated in the ELISAs); assay: solution equilibrium, BIAcore, pH 5.5
T1 construct: Limits 31-692 are stated for the immunogen; the assays only say human PCSK9; also called huPCSK9; rhu PCSK9

[2] = biological target: T1, human PCSK9 (self-cleaved, mature, …); assay: solution equilibrium, KinExA or BIAcore, pH 7.4
[3] = biological target: T1, human PCSK9 (self-cleaved, mature, …); assay: solution equilibrium
human D374Y PCSK9 [4] = biological target: T2, human D374Y PCSK9 (human, UniProt Q8NBP7 31-692, limits assumed, biotinylated in the blocking ELISA); assay: ELISA, blocking of biotin-D374Y PCSK9 binding to LDLR, expt. #1
T2 construct: also called D374Y PCSK9 mutant; biotinylated human D374Y PCSK9

[5] = biological target: T1, human PCSK9 (self-cleaved, mature, …); assay: ELISA pH 7.4, sup 1:625, expt 1
[6] = biological target: T1, human PCSK9 (self-cleaved, mature, …); assay: ELISA pH 7.4, sup 1:125, expt 1
[7] = biological target: T1, human PCSK9 (self-cleaved, mature, …); assay: ELISA, sup 1:125, expt 1
[8] = biological target: T1, human PCSK9 (self-cleaved, mature, …); assay: ELISA, sup 1:625, expt 2
[9] = biological target: T1, human PCSK9 (self-cleaved, mature, …); assay: ELISA, sup 1:625, expt 1
[10] = biological target: T1, human PCSK9 (self-cleaved, mature, …); assay: ELISA pH 6, sup 1:125, expt 2
[11] = biological target: T1, human PCSK9 (self-cleaved, mature, …); assay: ELISA, sup 1:125, expt 2
[12] = biological target: T1, human PCSK9 (self-cleaved, mature, …); assay: ELISA pH 6, sup 1:625, expt 2
[13] = biological target: T1, human PCSK9 (self-cleaved, mature, …); assay: ELISA pH 7.4, sup 1:125, expt 2
[14] = biological target: T1, human PCSK9 (self-cleaved, mature, …); assay: ELISA pH 6, sup 1:625, expt 1
[15] = biological target: T1, human PCSK9 (self-cleaved, mature, …); assay: ELISA, supernatant on captured biotin-PCSK9, late primary screen
[16] = biological target: T1, human PCSK9 (self-cleaved, mature, …); assay: ELISA, supernatant on captured biotin-PCSK9, early primary screen
[17] = biological target: T1, human PCSK9 (self-cleaved, mature, …); assay: ELISA pH 7.4, sup 1:625, expt 2
[18] = biological target: T1, human PCSK9 (self-cleaved, mature, …); assay: ELISA pH 6, sup 1:125, expt 1
human D374Y PCSK9 [19] = biological target: T2, human D374Y PCSK9; assay: ELISA, blocking of biotin-D374Y PCSK9 binding to LDLR, expt. #2

| Binder | Kd [1] [nM] | Kd [2] [nM] | pH 5.5/7.4 KD ratio [3] | % Inhibition (human D374Y PCSK9 [4]) [%] | OD 450 nm [5] [OD] | OD 450 nm [6] [OD] | OD diff (pH 7.4 - pH 6) [7] [OD] | OD diff (pH 7.4 - pH 6) [8] [OD] | OD diff (pH 7.4 - pH 6) [9] [OD] | OD 450 nm [10] [OD] | OD diff (pH 7.4 - pH 6) [11] [OD] | OD 450 nm [12] [OD] | OD 450 nm [13] [OD] | OD 450 nm [14] [OD] | OD 450 nm [15] [OD] | OD 450 nm [16] [OD] | OD 450 nm [17] [OD] | OD 450 nm [18] [OD] | % Inhibition (human D374Y PCSK9 [19]) [%] |
| --- | --- | --- | --- | --- | --- | --- | --- | --- | --- | --- | --- | --- | --- | --- | --- | --- | --- | --- | --- |
| B1 | 0.15 | 0.078 | 1.9 | – | – | – | – | – | – | – | – | – | – | – | – | – | – | – | – |
| B2 | – | – | – | 62 | 3.4 | 6 | 2.2 | -0.6 | 1.5 | 4.2 | 1.8 | 1.6 | 6 | 2 | 3.6 | 3.8 | 1 | 3.8 | 77 |
| B3 | – | – | – | 89 | 3 | 3.6 | 0.7 | 0.7 | 1.2 | 2.5 | 1.4 | 1.8 | 3.9 | 1.9 | 3.8 | 3.7 | 2.5 | 2.9 | 91 |
| B4 | – | – | – | 91 | 2.5 | 4.2 | 1.2 | 0.7 | 1.6 | 2.8 | 1.3 | 0.8 | 4.1 | 0.9 | 4.2 | 6 | 1.5 | 3 | 92 |
| B5 | – | – | – | 94 | 0.8 | 2.1 | 0.8 | 0 | 0.3 | 1.7 | 0.9 | 0.5 | 2.6 | 0.5 | 4.3 | 6 | 0.5 | 1.3 | 93 |
